Patent US20180045741

Target: unphosphorylated ubiquitin

B1: PINK1-3x Flag isolated from CCCP-treated cells (protein)
chain: MAVRQALGRGLQLGRALLLRFTGKPGRAYGLGRPGPAAGCVRGERPGWAAGPGAEPRRVGLGLPNRLRFFRQSVAGLAARLQRQFVVRAWGCAGPCGRAVFLAFGLGLGLIEEKQAESRRAVSACQEIQAIFTQKSKPGPDPLDTRRLQGFRLEEYLIGQSIGKGCSAAVYEATMPTLPQNLEVTKSTGLLPGRGPGTSAPGEGQERAPGAPAFPLAIKMMWNISAGSSSEAILNTMSQELVPASRVALAGEYGAVTYRKSKRGPKQLAPHPNIIRVLRAFTSSVPLLPGALVDYPDVLPSRLHPEGLGHGRTLFLVMKNYPCTLRQYLCVNTPSPRLAAMMLLQLLEGVDHLVQQGIAHRDLKSDNILVELDPDGCPWLVIADFGCCLADESIGLQLPFSSWYVDRGGNGCLMAPEVSTARPGPRAVIDYSKADAWAVGAIAYEIFGLVNPFYGQGKAHLESRSYQEAQLPALPESVPPDVRQLVRALLQREASKRPSARVAANVLHLSLWGEHILALKNLKLDKMVGWLLQQSAATLLANRLTEKCCVETKMKMLFLANLECETLCQAALLLCSWRAAL
Q: With B1 as the protein, how does the “phosphorylation of ubiquitin (Phos-tag assay)” value read?
A: PINK1 isolated from CCCP-treated cells phosphorylates ubiquitin
